Decrease in DA uptake by WT hDAT in the presence of recombinant Tat1-86 data for one substance are collected here from publication PMC5685495.

The assay deals with wild-type human dopamine transporter (human) (UniProt Q01959).
UniProt Q01959, sequence (Q01959 whole entry): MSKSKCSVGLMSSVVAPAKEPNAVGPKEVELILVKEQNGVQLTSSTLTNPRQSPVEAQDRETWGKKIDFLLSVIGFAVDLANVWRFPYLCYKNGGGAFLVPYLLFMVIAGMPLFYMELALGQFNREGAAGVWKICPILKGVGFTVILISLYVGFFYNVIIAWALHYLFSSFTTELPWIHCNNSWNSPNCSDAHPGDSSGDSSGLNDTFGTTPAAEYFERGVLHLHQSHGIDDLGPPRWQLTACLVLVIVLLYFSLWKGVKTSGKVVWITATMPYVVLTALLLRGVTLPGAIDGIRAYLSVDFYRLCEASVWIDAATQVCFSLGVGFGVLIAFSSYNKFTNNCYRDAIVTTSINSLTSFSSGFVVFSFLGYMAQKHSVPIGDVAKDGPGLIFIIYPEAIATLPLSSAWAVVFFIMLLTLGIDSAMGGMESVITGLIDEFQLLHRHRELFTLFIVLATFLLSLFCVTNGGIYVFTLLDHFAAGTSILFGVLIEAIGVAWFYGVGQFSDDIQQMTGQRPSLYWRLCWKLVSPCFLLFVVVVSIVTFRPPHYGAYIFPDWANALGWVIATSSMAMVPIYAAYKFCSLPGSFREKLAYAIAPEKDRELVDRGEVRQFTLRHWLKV

For the substance “Recombinant Tat1-86 (from UniProt P04608 1-86) (natural protein)”, the decrease in DA uptake by WT hDAT in the presence of recombinant Tat1-86 worked out at 31%.
